Data reported in patent US20100092460A1 (Ablynx, published 2010).

B1: CCL5 (ligand, UniProt P13501 24-91, looked up)
chain: SPYSSDTTPCCFAYIARPLPRAHIKEYFYTSGKCSNPAVVFVTRKNRQVCANPEKKWVREYINSLEMS
modifications: also: 125I label, position not given here
notes: also called RANTES

Legend:
hCCR1 = biological target: T1, hCCR1 (human, UniProt P32246 1-355); experiment: competition of unlabeled CCL5 with 125I-CCL5 on HEK293T cells with hCCR1
T1 construct: whole, on cells
T1 sequence (looked up): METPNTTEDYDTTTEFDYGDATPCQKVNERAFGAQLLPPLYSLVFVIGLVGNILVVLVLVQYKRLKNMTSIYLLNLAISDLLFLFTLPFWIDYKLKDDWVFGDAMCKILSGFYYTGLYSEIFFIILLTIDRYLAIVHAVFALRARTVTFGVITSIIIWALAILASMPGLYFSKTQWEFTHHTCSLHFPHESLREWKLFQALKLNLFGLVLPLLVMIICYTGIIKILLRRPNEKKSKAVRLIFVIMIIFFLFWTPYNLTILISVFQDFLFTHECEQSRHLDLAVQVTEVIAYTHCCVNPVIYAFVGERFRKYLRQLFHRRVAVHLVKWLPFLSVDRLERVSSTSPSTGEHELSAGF

[1] = biological target: T2, recombinant human CXCL12/SDF1alpha (human, UniProt P48061-2 22-89, biotinylated in the ELISA; 125I label in the radioligand assays); experiment: cell-based or functional assay
T2 sequence (P48061 22-89 limits assumed): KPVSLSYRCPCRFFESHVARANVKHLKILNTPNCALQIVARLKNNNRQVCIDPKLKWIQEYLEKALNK

[2] = biological target: T2, recombinant human CXCL12/SDF1alpha; experiment: inhibition of 125I-CXCL12 (57 pM) binding to CXCR4 on HEK293T cells; specific-binding data
[3] = biological target: T2, recombinant human CXCL12/SDF1alpha; experiment: inhibition of 125I-CXCL12 (57 pM) binding to CXCR4 on HEK293T cells; radioligand preincubated with purified Nanobody; total binding data
[4] = biological target: T3, recombinant human CCL5/RANTES (Mucin stalk Chimera) (human, UniProt P13501 24-91, biotinylated in the ELISA); experiment: ELISA, periplasmic extract on biotinylated mucin-CCL5 on neutravidin, anti-myc detection
T3 construct: also called mucin-CCL5; not shown: mucin stalk of the chimera (R&D 978-RN/CF); origin, limits and order not described
T3 sequence (looked up): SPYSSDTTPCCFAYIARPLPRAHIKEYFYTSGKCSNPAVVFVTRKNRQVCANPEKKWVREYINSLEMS

CCL5 = biological target: B1; experiment: inhibition of 125I-CCL5 binding to hCCR1 (HEK293T cells), purified Nanobody
[5] = biological target: T4, recombinant human CCL2/MCP1 (human, UniProt P13500 24-99, 125I label in the radioligand assays); experiment: inhibition of 125I-CCL2 binding to hCCR2 (HEK293T cells), 10x diluted extract
T4 construct: Immunogen and selection antigen was the Mucin stalk Chimera (R&D 979-MC/CF)
T4 sequence (P13500 24-99 limits assumed): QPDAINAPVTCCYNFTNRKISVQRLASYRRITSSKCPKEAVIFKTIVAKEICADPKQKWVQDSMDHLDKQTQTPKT

[6] = biological target: T4, recombinant human CCL2/MCP1; experiment: inhibition of 125I-CCL2 binding to hCCR2 (HEK293T cells), purified Nanobody and 10x diluted extract

B1
binding result (hCCR1): binds

B2: Nanobody 12A4 (VHH)
VHH: EVQLVESGGGLVQPGGSLRLSCAASGFTLDDYAIGWFRQAPGKEREGVSCINSNDGNTYYADSVKGRFTISRDNAKSTVYLQMNSLKPDDTAVYYCAAEAMGYCSAYGSFEGYWGQGTQVTVSS
notes: llama VHH against CXCL12; purified; also called 12C1; 12E4; not shown: C-terminal c-myc tag and (His)6 tag coded by the vector
inhibition of CXCL12-induced PLC activation (3H-inositol phosphate accumulation, HEK293T cells with CXCR4 and G-alpha-qi5), pIC50 [1]: 7.2 | pIC50 [2]: 9.1 | pIC50 [3]: 8.7

B3: Nanobody 10H3 (VHH)
VHH: EVQLVESGGGLVQAGGSLRLSCAASGRTFSTYVMGWFRQAPGKEREFVAGITSSIGVTRYAGSVQDRFTISKDNAKNTVFLQMNSLKPEDTADYYCAARPDYYISINPVAYPYWGQGTQVTVSS
notes: llama VHH against CCL5; purified; not shown: C-terminal c-myc tag and (His)6 tag coded by the vector
binding result [4]: binds | binding result (CCL5): binds

B4: Nanobody 16D5 (VHH)
VHH: EVQLVESGGGLVQAGGSLRLSCAASGFTFDDYAIAWFRQAPGKEREVVSCISSSDGSTYYADSVKGRFTISSDNAKNTVFLQMNSLKPEDTAVYYCAAVSNCPRDSDYIPYLHYWWGQGTQVTVSS
notes: llama VHH against CCL2; not shown: C-terminal c-myc tag and (His)6 tag coded by the vector
binding result [5]: binds

B5: Nanobody 16C1 (VHH)
VHH: EVQLVESGGGLVQAGGSLRLSCAASGRTFSSYVMGWFRQAPGKEREFVAAIRWSGGSTYYADSVKGRFTISRDNAKNTVYLQMNSLKPEDTAVYYCAADLLGDSDYEPSSGFGSWGQGTQVTVSS
notes: as for B4
binding result [6]: binds
